Here are results for 8 molecules from patent US20250270319A1 (Alector, published 2025).

Assay [1] concerns the target T1, human CD33 on primary human dendritic cells (human, UniProt P20138 18-364). The assay is described as follows: cell-based or functional assay.
Assay [2] has as its target T1, human CD33 on primary human dendritic …. The assay can be described thus: cell-based or functional assay. This is another data set of the same source.
Assay [3] has as its target T2, recombinant human CD33 protein (Sino Biologicals) (human, UniProt P20138 18-259).
T2 construct: Bought protein; also called recombinant CD33
The assay is described as follows: BLI (ForteBio), antibody on anti-human Fc sensor, CD33 10 nM. A general note: In BLI a coated tip is dipped into the sample, and binding shifts an interference pattern.

For assay [4], the target named is T3, recombinant cynomolgus CD33 protein (NovoProtein) (cynomolgus).
T3 construct: Bought protein; also called cyno CD33
T3 sequence (chain, as listed by the source limits assumed): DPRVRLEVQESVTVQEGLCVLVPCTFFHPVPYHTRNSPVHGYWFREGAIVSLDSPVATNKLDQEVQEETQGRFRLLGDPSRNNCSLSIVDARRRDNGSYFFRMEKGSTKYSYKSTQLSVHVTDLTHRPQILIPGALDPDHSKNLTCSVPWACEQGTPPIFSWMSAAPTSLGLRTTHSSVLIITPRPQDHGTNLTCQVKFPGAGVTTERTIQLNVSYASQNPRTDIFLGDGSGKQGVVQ
The assay can be described thus: ELISA, plate coated with recombinant CD33. For orientation: In an ELISA, binding on a coated surface is turned into a signal by an enzyme label.

Assay [5] deals with T2, recombinant human CD33 protein (Sino …). The assay can be described thus: ELISA, plate coated with recombinant CD33.
Assay [6] addresses T1, human CD33 on primary human dendritic …. The assay can be described thus: cell-based or functional assay. The source holds these as a separate data set.
Assay [7] shares this target. The assay can be described thus: flow cytometry, primary human dendritic cells, 2 ug/mL. Background: Flow cytometry measures light scatter and fluorescence of single cells or particles in a stream.
For assay [8], the target named is T3, recombinant cynomolgus CD33 protein …. The assay can be described thus: BLI (ForteBio). How it is done:
(§1) Affinity parameters of the antibody variants for human CD33 were measured by BioLayer Interferometry in a ForteBio assay according to standard techniques (Estep et al. (2013) MAbs 5(2): 270-8) and were compared to those of the parental antibody (antibody 6C7H8) and the parental humanized antibody (antibody 6C71H5). Briefly, the antibodies were captured on anti-human Fc Biosensors (Pall ForteBio). Recombinant human CD33 (10 nM, Sino Biologicals) was then bound to the captured anti-CD33 surface (200 s association time, 1200 s dissociation time). Local fitting was used to extract association and dissociation rate constants (kₐ and kd, respectively) for each antibody. Apparent affinity constants (KD) were calculated from the ratio kd/kₐ.
(§2) The affinity parameters of anti-CD33 antibody 6C7H54 for human CD33 and cynomolgus CD33 were measured by BioLayer Interferometry in a ForteBio assay, according to the method described above.

Assay [9] concerns the target T1, human CD33 on primary human dendritic …. The assay can be described thus: cell-based or functional assay. The source holds these as a separate data set.
In assay [10] the target is T3, recombinant cynomolgus CD33 protein …. The assay is described as follows: BLI (ForteBio), antibody on anti-human Fc sensor. As to the method:
as §1, §2

In assay [11] the target is T2, recombinant human CD33 protein (Sino …). The assay can be described thus: BLI (ForteBio), antibody on anti-human Fc sensor. How it is done:
as §1, §2

The target is the same in assay [12]. The assay can be described thus: ELISA on recombinant CD33, relative binding, antibody concentration not given.
The target in assay [13] is T1, human CD33 on primary human dendritic …. The assay can be described thus: flow cytometry on primary human dendritic cells, antibody at 2 ug/mL, fluorescent anti-human IgG secondary. As to the method: The 7 humanized anti-CD33 antibodies of 6C7 were evaluated for binding to primary dendritic cells by flow cytometry, and binding was compared to that of an anti-CD33 6C7 chimeric antibody that contained the variable heavy chain sequence and the variable light chain sequence of anti-CD33 antibody 6C7. Monocytes were isolated from blood from healthy human donors using the RosetteSep™ monocyte isolation antibody cocktail (StemCell Technologies). The isolated monocytes were differentiated into dendritic cells with 100 ng/mL GM-CSF and 100 ng/mL IL-4 (Peprotech). Dendritic cells were incubated with dilutions of the anti-CD33 antibodies for 30 minutes on ice in the dark, followed by a 30-minute incubation with a fluorescently-conjugated anti-human IgG secondary antibody. Cells were washed twice in FACS buffer (PBS+2% FBS, 2 mM EDTA), and flow cytometry was performed on a BD FACS Canto. Data were analyzed using FlowJo software (Ashland, OR).
The antibody variants were evaluated for binding to primary human dendritic cells, according to the method described in Example 1, at an antibody concentration of 2 μg/mL.

One may read the Kd as the equilibrium constant for the complex coming apart. For orientation: koff means the first-order rate constant of dissociation. In general, kon refers to a measure of how fast the partners come together. What is called EC50 is the concentration needed to bring the measured effect to its halfway point.

Where two headings read alike, the source gives them in different places. Some results are limits rather than exact numbers.

T1 sequence (P20138 18-364): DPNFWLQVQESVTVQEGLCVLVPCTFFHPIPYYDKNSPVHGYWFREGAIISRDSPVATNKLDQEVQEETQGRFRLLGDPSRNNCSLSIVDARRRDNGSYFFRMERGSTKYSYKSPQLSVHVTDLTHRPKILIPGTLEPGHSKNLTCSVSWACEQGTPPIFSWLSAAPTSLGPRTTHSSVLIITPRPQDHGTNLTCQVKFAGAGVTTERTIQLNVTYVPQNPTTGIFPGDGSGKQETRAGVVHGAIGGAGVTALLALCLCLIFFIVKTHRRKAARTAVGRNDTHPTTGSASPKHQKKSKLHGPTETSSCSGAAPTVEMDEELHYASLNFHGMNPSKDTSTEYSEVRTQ
T2 sequence (P20138 18-259 limits assumed): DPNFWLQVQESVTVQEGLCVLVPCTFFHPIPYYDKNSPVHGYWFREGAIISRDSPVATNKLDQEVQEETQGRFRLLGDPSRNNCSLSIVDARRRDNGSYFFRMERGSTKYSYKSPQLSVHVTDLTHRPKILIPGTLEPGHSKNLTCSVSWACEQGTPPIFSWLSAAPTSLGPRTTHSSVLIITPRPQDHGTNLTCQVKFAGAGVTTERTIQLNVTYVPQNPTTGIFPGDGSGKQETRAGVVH

B1: anti-CD33 antibody 6C7H5 (antibody, V domains shown)
VH: EVQLVESGGGLVQPGGSLRLSCAGSGFTFSNYCMNWVRQAPGKGLEWVAEIRLKSNNYVTNYAASVKGRFTISRDDSKNSVYLQMNSLKTEDTGVYYCTRDGYYVPFAYWGQGTLVTVSS
VL: QLVLTQSPSASASLGASVKLTCTLSSQHSTYTIEWYQQQPEKGPRYLMELKKDGSHSTGDGIPDRFSGSSSGAERYLTISSLQSEDEADYYCGVGDTIKEQFVYVFGGGTKLTVL
notes: Humanized 6C7; VH/VL only; also called parental humanized antibody
Regarding B1, in assay [1], the “Maximal reduction in CD33 (% remaining)” value is 21 % remaining and the “Receptor downregulation, (EC50) (pM)” value came to 42.4 pM. Besides, the “Receptor downregulation, (EC50) (pM)” value in [2] was 42.4 pM. In [3], the equilibrium dissociation constant (Kd) amounted to 0.436 nM, the koff was 0.00012 s⁻¹ and the kon came out at 275000 M⁻¹ s⁻¹. Further, in [4], the EC50 amounted to 3.84 nM, the “Relative maximal binding (cyno/human)” value was determined as 0.5 and the “Relative potency (human/cyno)” value was 0.04. Also, the EC50 in assay [5] came out at 0.16 nM. In assay [6], the “Receptor downregulation, (EC50) (pM)” value came to 42.4 pM.

B2: anti-CD33 antibody 6C7H22 (antibody, V domains shown)
VH: EVQLVESGGGLVQPGGSLRLSCAGSGFTFSNYTMNWVRQAPGKGLEWVAEIRLKSNNYVTNYAASVKGRFTISRDDSKNSVYLQMNSLKTEDTGVYYCTRAGYYVPFAYWGQGTLVTVSS
VL: QLVLTQSPSASASLGASVKLTCTLSSQHSTYTIEWYQQQPEKGPRYLMELKKEGSHSTGDGIPDRFSGSSSGAERYLTISSLQSEDEADYYCGVGDTIKEQFVYVFGGGTKLTVL
notes: VH/VL only
For the molecule B2, in assay [1], the “Fold increase in potency compared to 6C7H5” value (from here on “Fold increase in potency”) came out at 0.03 fold and the “Receptor downregulation, (EC50) (pM)” value is 1230 pM. Further, in assay [3], the Kd is 0.467 nM, the koff was determined as 0.00113 s⁻¹ and the kon is 2.41e+06 M⁻¹ s⁻¹. Further, the “binding relative to the parental antibodies” value in assay [7] was below 60%.

B3: anti-CD33 antibody 6C7H54 (antibody, IgG1, V domains shown)
VH: EVQLVESGGGLVQPGGSLRLSCAGSGFTFSNYEMNWVRQAPGKGLEWVAEIRLKSNNYVTNYAASVKGRFTISRDDSKNSVYLQMNSLKTEDTGVYYCTRAGYYVPFAYWGQGTLVTVSS
VL: QLMLTQSPSASASLGASVKLTCTLSSQHSTYTIEWYQQQPGKGPRYLMELKKEGSHSTGDGIPDRFSGSSSGAERYLTISSLQSEDEADYYCGVGHTIKEQFVYVFGGGTKLTVL
notes: VH/VL only; also called 6C7H54 IgG1; 6C754
As to B3, in assay [2], the “Fold increase in potency” value came to 1.2 fold and the “Receptor downregulation, (EC50) (pM)” value worked out at 30.2 pM. In assay [8], the “fold difference of binding affinity, cynomolgus CD33 against human CD33” value is at most 3 fold. Besides, in [9], the “Maximal downregulation (% CD33 remaining)” value stood at 26.1 % CD33 remaining and the “Receptor downregulation, (pM, EC50)” value is 30.2 pM. In addition, in [4], the EC50 was 0.57 nM, the “Relative maximal binding (cyno/human)” value stood at 0.73 and the “Relative potency (human/cyno)” value worked out at 0.49. Moreover, in [5], the EC50 was 0.28 nM. Also, in [10], the Kd was 0.178 nM, the koff amounted to 0.000105 s⁻¹ and the kon was determined as 589000 M⁻¹ s⁻¹. In assay [11], the Kd was 0.061 nM, the koff worked out at 3.32e-05 s⁻¹ and the kon is 545000 M⁻¹ s⁻¹.

B4: anti-CD33 antibody 6C7H8 (antibody, IgG1, V domains shown)
VH: EVQLVESGGGLVQPGGSLRLSCAGSGFTFSNYCMNWVRQAPGKGLEWVAEIRLKSNNYVTNYAASVKGRFTISRDDSKNSVYLQMNSLKTEDTGVYYCTRAGYYVPFAYWGQGTLVTVSS
VL: QLVLTQSPSASASLGASVKLTCTLSSQHSTYTIEWYQQQPEKGPRYLMELKKEGSHSTGDGIPDRFSGSSSGAERYLTISSLQSEDEADYYCGVGDTIKEQFVYVFGGGTKLTVL
notes: VH/VL only; also called 6C7H8 IgG1; parental antibody
B4: in [1], the “Fold increase in potency” value stood at 0.5 fold; the “Maximal reduction in CD33 (% remaining)” value came out at 21.5 % remaining; the “Receptor downregulation, (EC50) (pM)” value was 77.9 pM. Also, in assay [9], the “Maximal downregulation (% CD33 remaining)” value stood at 21.5 % CD33 remaining and the “Receptor downregulation, (pM, EC50)” value was determined as 77.9 pM. In assay [3], the Kd amounted to 0.722 nM, the koff was 0.000413 s⁻¹ and the kon is 572000 M⁻¹ s⁻¹. Moreover, the “Relative maximal binding (cyno/human)” value in [4] worked out at 0.06. The EC50 in assay [5] was 0.21 nM. For the same molecule, the “Receptor downregulation, (EC50) (pM)” value in assay [6] came to 77.9 pM.

B5: anti-CD33 antibody 6C7H11 (antibody, V domains shown)
VH: EVQLVESGGGLVQPGGSLRLSCAASGFTFSEYAMNWVRQAPGKGLEWVGEIRLKSNNYVTNYAASVKGRFTISRDDSKNSVYLQMNSLKTEDTGVYYCTRAGYYVPFAYWGQGTLVTVSS
VL: QLVLTQSPSASASLGASVKLTCTLSSQHSTYTIEWYQQQPEKGPRYLMELKKGGSHSTGDGIPDRFSGSSSGAERYLTISSLQSEDEADYYCGVGDTIKEQFVYVFGGGTKLTVL
notes: VH/VL only
On to B5, for which the binding result in [12] and in [13] was “binds” in each case.

B6: anti-CD33 antibody 6C7H27 (antibody, V domains shown)
VH: EVQLVESGGGLVQPGGSLRLSCAGSGFTFSDYTMNWVRQAPGKGLEWVAEIRLKSNNYVTNYAASVKGRFTISRDDSKNSVYLQMNSLKTEDTGVYYCTRAGYYVPFAYWGQGTLVTVSS
VL: QLVLTQSPSASASLGASVKLTCTLSSQHSTYTIEWYQQQPEKGPRYLMELKKEGSHSTGDGIPDRFSGSSSGAERYLTISSLQSEDEADYYCGVGDTIKEQFVYVFGGGTKLTVL
notes: VH/VL only
In the case of B6, in assay [1], the “Fold increase in potency” value turned out to be 0.03 fold and the “Receptor downregulation, (EC50) (pM)” value came out at 1520 pM. Also, in [3], the Kd came out at 2.73 nM, the koff came to 0.00365 s⁻¹ and the kon was determined as 1.34e+06 M⁻¹ s⁻¹. The “binding relative to the parental antibodies” value in assay [7] is below 60%.

B7: anti-CD33 antibody 6C7H13 (antibody, V domains shown)
VH: EVQLVESGGGLVQPGGSLRLSCAGSGFTFSNYFMNWVRQAPGKGLEWVAEIRLKSNNYVTNYAASVKGRFTISRDDSKNSVYLQMNSLKTEDTGVYYCTRAGYYVPFAYWGQGTLVTVSS
VL: QLVLTQSPSASASLGASVKLTCTLSSQHSTYTIEWYQQQPEKGPRYLMELKKEGSHSTGDGIPDRFSGSSSGAERYLTISSLQSEDEADYYCGVGDTIKEQFVYVFGGGTKLTVL
notes: VH/VL only
As to B7, in [1], the “Fold increase in potency” value turned out to be 0.01 fold and the “Receptor downregulation, (EC50) (pM)” value came to 3640 pM. In addition, in assay [3], the Kd was 3.88 nM, the koff came out at 0.0031 s⁻¹ and the kon amounted to 801000 M⁻¹ s⁻¹. For the same molecule, the “binding relative to the parental antibodies” value in assay [7] is below 60%.

B8: anti-CD33 antibody 6C7H30 (antibody, V domains shown)
VH: EVQLVESGGGLVQPGGSLRLSCAGSGFTFSNYWMNWVRQAPGKGLEWVAEIRLKSNNYVTNYAASVKGRFTISRDDSKNSVYLQMNSLKTEDTGVYYCTRAGYYVPFAYWGQGTLVTVSS
VL: QLVLTQSPSASASLGASVKLTCTLSSQHSTYTIEWYQQQPEKGPRYLMELKKEGSHSTGDGIPDRFSGSSSGAERYLTISSLQSEDEADYYCGVGDTIKEQFVYVFGGGTKLTVL
notes: VH/VL only
Consider B8, for which, in assay [3], the Kd is 1.27 nM, the koff was 0.0059 s⁻¹ and the kon was 4.65e+06 M⁻¹ s⁻¹. In [7], the “binding relative to the parental antibodies” value was below 60%.
